B1: RAD54B (parent)
chain: YVQEKRDGLKRRQQLEEELLRAKI
B2: USP39 (parent)
chain: FQGSMRIFTKKLPHPDLPAEEKEQ
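Further: lentivirally expressed fusions sorted by FACS into six bins by GFP to DsRed ratio, PSI derived from sequencing read proportions per bin multiplied by bin number.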

One series covers variants of B1. In words: protein stability index of a GFP-peptide fusion (GPS, HEK-293T) (PSI 1-6); higher = more stable. As to conditions: c terminus: a fixed tail appended.
In the case of YVQEKRDGLKRRQQLEEELLRMKI [A22M], the protein stability index was 2.27. On the same count and under the same terms, the result for YVQEKRDGLKRRQQLEEELLRTKI [A22T] reads 1.98; that for YVQEKRDGLKRRQQLEEELLRLKI [A22L], 1.99. Same read-out and setting: the result for YVQEKRDGLKRRQQLEEELLRGKI [A22G] reads 1.89. The same measure, in the same setting: the figure for YVQEKRDGLKRRQQLEEELLRVKI [A22V] is 2.45; for YVQEKRDGLKRRQQLEEELLRYKI [A22Y] it is 1.81. Consider YVQEKRDGLKRRQQLEEELLRKKI [A22K], for which the protein stability index stood at 1.82.

In the case of YVQEKRDGLKRRQQLEEELLRCKI [A22C], the protein stability index was 1.83. Still for that read-out and setting: the figure for YVQEKRDGLKRRQQLEEELLRHKI [A22H] is 1.52; for YVQEKRDGLKRRQQLEEELLRSKI [A22S] it is 2.16; for YVQEKRDGLKRRQQLEEELLRRKI [A22R] it is 1.83. YVQEKRDGLKRRQQLEEELLRNKI [A22N]: the protein stability index turned out to be 2.01. On the same count and under the same terms, the result for YVQEKRDGLKRRQQLEEELLRIKI [A22I] reads 2.32; that for YVQEKRDGLKRRQQLEEELLRFKI [A22F], 2.06; that for YVQEKRDGLKRRQQLEEELLKAKI [R21K], 2.19.

Turning to YVQEKRDGLKRRQQLEEELLIAKI [R21I], the protein stability index came to 2.16.

As for YVQEKRDGLKRRQQLEEELLTAKI [R21T], the protein stability index amounted to 2.26. On the same count and under the same terms, the result for YVQEKRDGLKRRQQLEEELLSAKI [R21S] reads 2.97; that for YVQEKRDGLKRRQQLEEELLAAKI [R21A], 1.66.

Consider YVQEKRDGLKRRQQLEEELLGAKI [R21G], for which the protein stability index came out at 2.09. The same measure, in the same setting: the figure for YVQEKRDGLKRRQQLEEELLQAKI [R21Q] is 1.89; for YVQEKRDGLKRRQQLEEELLFAKI [R21F] it is 1.93. The same measure, in the same setting: the result for YVQEKRDGLKRRQQLEEELLWAKI [R21W] reads 1.93; that for YVQEKRDGLKRRQQLEEELLHAKI [R21H], 1.57; that for YVQEKRDGLKRRQQLEEELLPAKI [R21P], 2.32. Same read-out and setting: the figure for YVQEKRDGLKRRQQLEEELLDAKI [R21D] is 2.1; for YVQEKRDGLKRRQQLEEELLMAKI [R21M] it is 1.96. With YVQEKRDGLKRRQQLEEELLLAKI [R21L], the protein stability index stood at 1.84. Same read-out and setting: the result for YVQEKRDGLKRRQQLEEELLVAKI [R21V] reads 1.94. Still for that read-out and setting: the result for YVQEKRDGLKRRQQLEEELLYAKI [R21Y] reads 1.75. On the same count and under the same terms, the figure for YVQEKRDGLKRRQQLEEELLCAKI [R21C] is 1.87; for YVQEKRDGLKRRQQLEEELLNAKI [R21N] it is 1.8. In the case of YVQEKRDGLKRRQQLEEELLEAKI [R21E], the protein stability index was found to be 2.17.

Another series covers variants of B2. Described as above. As to conditions: c terminus: a fixed tail appended.
For the variant FQGSMRIFTKKLPHPDLPAEEKLQ [E23L], the protein stability index is 1.69. As for FFGSMRIFTKKLPHPDLPAEEKEQ [Q2F], the protein stability index was found to be 2.99. On the same count and under the same terms, the result for FGGSMRIFTKKLPHPDLPAEEKEQ [Q2G] reads 3.26; that for FRGSMRIFTKKLPHPDLPAEEKEQ [Q2R], 3.89; that for FMGSMRIFTKKLPHPDLPAEEKEQ [Q2M], 3.46. Regarding FKGSMRIFTKKLPHPDLPAEEKEQ [Q2K], the protein stability index turned out to be 4.16. FQGSMRIFTKKLPHPDLPAEEFEQ [K22F]: the protein stability index was 1.96.

In the case of FQGSMRIFTKKLPHVDLPAEEKEQ [P15V], the protein stability index came out at 1.62. The same measure, in the same setting: the result for FQGSMRIFTKKLPHMDLPAEEKEQ [P15M] reads 2.1; that for FQGSMRIFTKKLPHKDLPAEEKEQ [P15K], 1.76.

Regarding FQGSMRIFTKKLPHPDLEAEEKEQ [P18E], the protein stability index was 1.8. On the same count and under the same terms, the result for FQGSMRIFTKKLPHPDLHAEEKEQ [P18H] reads 1.82. Turning to FQGSMRIFTKKLPHPDLGAEEKEQ [P18G], the protein stability index came out at 1.98. For the variant FQGVMRIFTKKLPHPDLPAEEKEQ [S4V], the protein stability index is 1.95. The same measure, in the same setting: the result for FQGHMRIFTKKLPHPDLPAEEKEQ [S4H] reads 1.69. For the variant FQGSMRIFTKKLPHPDLPAREKEQ [E20R], the protein stability index came to 1.95.

With FQYSMRIFTKKLPHPDLPAEEKEQ [G3Y], the protein stability index worked out at 2.57.

As to FQSSMRIFTKKLPHPDLPAEEKEQ [G3S], the protein stability index was 2.31. Still for that read-out and setting: the figure for FQASMRIFTKKLPHPDLPAEEKEQ [G3A] is 2.61; for FQGSMRIFTKKLPHPDLPAEEKEI [Q24I] it is 2.13; for FQGSMRIFTKKLPHPDLPAEEKEV [Q24V] it is 1.52. For the variant FQGSMRIFTKKLPHPDLPAEEKEH [Q24H], the protein stability index came out at 2.05.

For the variant FQGSMRIFTKKLPHPVLPAEEKEQ [D16V], the protein stability index came out at 1.99. As to FQGSMRIFTKKLPHPPLPAEEKEQ [D16P], the protein stability index worked out at 1.73. Same read-out and setting: the figure for FQGSMRIFTKKLPHPELPAEEKEQ [D16E] is 2.18; for FQGSMRIFTKKLPHPDLPGEEKEQ [A19G] it is 1.63; for FQGSMRIFTKKLPHPDLPSEEKEQ [A19S] it is 2.08.

With FQGSMRIFTKKLPHPDLPDEEKEQ [A19D], the protein stability index was determined as 2.07. Still for that read-out and setting: the result for FQGSMRIFTKKLPHPDYPAEEKEQ [L17Y] reads 2.5; that for FQGSMRIFTKKLPHPDSPAEEKEQ [L17S], 1.95; that for FQGSMRIFTKKLPHPDAPAEEKEQ [L17A], 1.99. Turning to FQGSMRIFTKKLPHPDWPAEEKEQ [L17W], the protein stability index was 2.06.

On to FQGSSRIFTKKLPHPDLPAEEKEQ [M5S], for which the protein stability index turned out to be 1.61. As for FQGSLRIFTKKLPHPDLPAEEKEQ [M5L], the protein stability index was determined as 2.01. FQGSHRIFTKKLPHPDLPAEEKEQ [M5H]: the protein stability index was found to be 1.82. The same measure, in the same setting: the figure for FQGSQRIFTKKLPHPDLPAEEKEQ [M5Q] is 2.29; for FQGSMRIFTKKLPHPDLPAEVKEQ [E21V] it is 1.4. FQGSMRIFTKKLPIPDLPAEEKEQ [H14I]: the protein stability index was 1.84.

With FQGSMRIFTKKLPPPDLPAEEKEQ [H14P], the protein stability index turned out to be 1.86. Same read-out and setting: the figure for FQGSMRIFTKKLPSPDLPAEEKEQ [H14S] is 1.65; for FQGSMRIFTKKLPYPDLPAEEKEQ [H14Y] it is 1.8; for FQGSMRIFTKKLPRPDLPAEEKEQ [H14R] it is 1.93.

Regarding FQGSMRIFTKKPPHPDLPAEEKEQ [L12P], the protein stability index was found to be 2.45. The same measure, in the same setting: the figure for FQGSMRIFTKKYPHPDLPAEEKEQ [L12Y] is 2. On the same count and under the same terms, the figure for FQGSMRIFTKKHPHPDLPAEEKEQ [L12H] is 2.17.

Turning to FQGSMRIFTKKAPHPDLPAEEKEQ [L12A], the protein stability index stood at 1.62. On the same count and under the same terms, the figure for FQGSMRIFTKKIPHPDLPAEEKEQ [L12I] is 1.91; for FQGSMHIFTKKLPHPDLPAEEKEQ [R6H] it is 1.83; for FQGSMCIFTKKLPHPDLPAEEKEQ [R6C] it is 1.76. On the same count and under the same terms, the result for FQGSMRIFCKKLPHPDLPAEEKEQ [T9C] reads 1.69; that for FQGSMRIFTKRLPHPDLPAEEKEQ [K11R], 2.06. On the same count and under the same terms, the result for FQGSMRIWTKKLPHPDLPAEEKEQ [F8W] reads 1.56; that for FQGSMRIMTKKLPHPDLPAEEKEQ [F8M], 3.52; that for FQGSMRIKTKKLPHPDLPAEEKEQ [F8K], 3.64. Take FQGSMRIHTKKLPHPDLPAEEKEQ [F8H]: the protein stability index came to 3.33. Take FQGSMRIFTDKLPHPDLPAEEKEQ [K10D]: the protein stability index was found to be 2.07. In the case of FQGSMRIFTWKLPHPDLPAEEKEQ [K10W], the protein stability index was 1.81. Same read-out and setting: the result for FQGSMRIFTYKLPHPDLPAEEKEQ [K10Y] reads 1.94; that for FQGSMRIFTKKLQHPDLPAEEKEQ [P13Q], 1.9. On the same count and under the same terms, the figure for FQGSMRIFTKKLNHPDLPAEEKEQ [P13N] is 2.35; for MQGSMRIFTKKLPHPDLPAEEKEQ [F1M] it is 4.19.

For the origin of these results see the supplement of paper PMC10567573.
